Assay results taken from patent US20240293478A1.

Tests used:
[1] = biological target: IL-12 receptor on HEK-Blue IL-12 cells (UniProt P42701); test: cell-based or functional assay
[2] = biological target: mouse TGF-β1 (R&D systems) (mouse) (UniProt P04202); test: direct ELISA with mouse TGF-β1; concentrated supernatant of transfected HEK293T cells
[3] = biological target: mouse TGF-β1 (R&D systems) (mouse) (UniProt P04202); test: direct ELISA with mouse TGF-β1; supernatant of transfected HEK293T cells
[4] = biological target: recombinant murine CTLA-4-human IgG1 Fc chimera (R&D Systems) (mouse; human) (UniProt P09793); test: competitive ELISA; competitor mouse CD86 coated at 100 ng/ml, 10 ng/ml murine CTLA-4-human IgG1 Fc mixed with HEK293T supernatant, anti-human IgG1-HRP
[5] = biological target: recombinant murine CTLA-4-human IgG1 Fc chimera (R&D Systems) (mouse; human) (UniProt P09793); test: competitive ELISA; competitor mouse CD80 coated at 100 ng/ml, 10 ng/ml murine CTLA-4-human IgG1 Fc mixed with HEK293T supernatant, anti-human IgG1-HRP

Chain of IL-12 receptor on HEK-Blue IL-12 cells (Q99665 24-862, chain 2 of 2, other chains not shown): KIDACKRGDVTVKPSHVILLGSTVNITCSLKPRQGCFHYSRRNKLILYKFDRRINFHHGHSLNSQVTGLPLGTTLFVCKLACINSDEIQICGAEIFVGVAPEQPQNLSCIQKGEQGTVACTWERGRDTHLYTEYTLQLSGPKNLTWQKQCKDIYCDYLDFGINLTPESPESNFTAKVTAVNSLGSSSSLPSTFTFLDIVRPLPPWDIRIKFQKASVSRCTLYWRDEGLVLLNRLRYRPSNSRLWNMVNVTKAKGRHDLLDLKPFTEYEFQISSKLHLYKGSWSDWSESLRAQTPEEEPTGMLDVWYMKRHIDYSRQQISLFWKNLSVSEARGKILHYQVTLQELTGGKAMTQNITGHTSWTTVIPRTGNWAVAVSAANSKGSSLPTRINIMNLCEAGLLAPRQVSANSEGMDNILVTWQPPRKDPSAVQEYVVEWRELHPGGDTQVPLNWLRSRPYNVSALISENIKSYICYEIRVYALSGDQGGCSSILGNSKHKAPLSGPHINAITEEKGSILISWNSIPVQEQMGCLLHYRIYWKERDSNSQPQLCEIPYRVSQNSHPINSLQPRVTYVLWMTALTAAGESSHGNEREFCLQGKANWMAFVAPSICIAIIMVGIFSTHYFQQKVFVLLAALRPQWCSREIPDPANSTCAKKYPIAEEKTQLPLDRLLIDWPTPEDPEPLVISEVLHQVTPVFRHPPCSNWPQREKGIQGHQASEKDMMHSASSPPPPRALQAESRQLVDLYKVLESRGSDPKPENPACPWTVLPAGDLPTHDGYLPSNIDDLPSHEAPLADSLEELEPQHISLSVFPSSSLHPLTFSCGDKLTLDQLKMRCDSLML
Chain of recombinant murine CTLA-4-human IgG1 Fc chimera (R&D Systems) (mouse; human) (P09793 36-162 limits assumed, change not shown): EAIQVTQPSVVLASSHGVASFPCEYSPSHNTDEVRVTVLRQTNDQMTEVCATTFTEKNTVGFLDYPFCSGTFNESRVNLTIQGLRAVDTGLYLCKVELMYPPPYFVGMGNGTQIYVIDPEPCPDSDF
Chain of mouse TGF-β1 (R&D systems) (mouse) (P04202 279-390 limits assumed): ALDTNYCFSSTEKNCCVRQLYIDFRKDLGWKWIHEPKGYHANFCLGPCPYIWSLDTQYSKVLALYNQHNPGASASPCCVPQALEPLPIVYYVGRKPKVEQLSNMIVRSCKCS

Substance | STAT4-SEAP (Absorbance/% GFP); transfected HEK cells co-cultured with HEK-Blue IL-12 cells (Absorbance/% GFP) [1] | other results
Mouse membrane bound IL-12p70 (ligand) | 0.117 | 
Human membrane bound IL-12p70 (ligand) | 0.237 | 
Soluble mouse TGFβ receptor II Fc (from UniProt Q62312 24-166) (Fc fusion) |  | Absorbance at 450 nm (absorbance (450 nm)) [2]: 1.52; Absorbance at 450 nm (absorbance (450 nm)) [3]: 1.51
muIL-12p70 (ligand) | 0.11 | 
huIL-12p70 (ligand) | 0.11 | 
ipilimumab scFv antibody fragment |  | % CD86 Blockade Activity [4]: 32.5%; % CD80 Blockade Activity [5]: 7%
